# Measured values from paper PMC11488477, “TDP-43 Amyloid Fibril Formation via Phase Separation-Related and -Unrelated Pathways” (ACS Chemical Neuroscience, 2024).
# B1: C-terminal domain of TDP-43 (residues 266-414), wild type (domain or fragment, UniProt Q13148 266-414, looked up)
# chain: SNRQLERSGRFGGNPGGFGNQGGFGNSRGGGAGLGNNQGSNMGGGMNFGAFSINPAMMAAAQAALQSSWGMMGMLASQQNQSGPSGNNQNQGNMQREPNQAFGSGNNSYSGSNSGAAIGWGSASNAGSGSGFNGGFGSSMDSKSSGWGM
# notes: TDP-43, C-terminal domain (intrinsically disordered region), residues 266-414; UniProt entry Q13148; also called TDP-43's IDR; wild-type TDP-43
# Target: the molecule itself
# Assay: thioflavin T fluorescence + negative-stain TEM; protein alone in buffer with ThT, 20 uM (higher at pH 4 and 5), pH 4-7, 0-300 mM NaCl, 1% DMSO, 96-well plate, 30 °C; long-period assays (Figure 5) incubated without shaking; self-assembly into amyloid fibrils
protein,measurement,value
B1,binding result,binds
